From patent publication US7531333B2, “Process for producing isoprenoid compounds by microorganisms and a method for screening compounds with antibiotic or weeding activity” (Kyowa Hakko Kogyo Co., Ltd., priority 1998, dated 2009) come the findings set out here.

Substrate in this data set: CC(=O)[C@@H](O)[C@H](O)COP(=O)(O)O
Kind of data set: Enzymatic activity of yaeM gene product (NADPH decrease, absorbance at 340 nm). Type of data set: biochemical, E. coli. The following applies: other: in the presence of MnCl2; pH 7.5; 37.0 °C.

Protocol: 0.3 mol/l of 1-deoxy-D-xylulose 5-phosphate (final concentration) synthesized as described above was added to 1 ml of a reaction solution containing 100 mol/l Tris-hydrochloric acid (pH 7.5), 1 mol/l MmCl2, 0.3 mol/l NADPH and yaeM gene product obtained in Example 8 (2) ? , and then incubated at 37° C.
The enzymological characteristics of 1-deoxy-D-xylulose 5-phosphate reductoisomerase were examined using 1 ml of the reaction system as described in Example 8 (2) ? . Here, 1 unit is defined as the activity to oxidize 1 mmol of NADPH per a minute.

B1: 1-deoxy-D-xylulose 5-phosphate reductoisomerase (Escherichia coli K-12) (protein)
chain: MKQLTILGSTGSIGCSTLDVVRHNPEHFRVVALVAGKNVTRMVEQCLEFSPRYAVMDDEASAKLLKTMLQQQGSRTEVLSGQQAACDMAALEDVDQVMAAIVGAAGLLPTLAAIRAGKTILLANKESLVTCGRLFMDAVKQSKAQLLPVDSEHNAIFQSLPQPIQHNLGYADLEQNGVVSILLTGSGGPFRETPLRDLATMTPDQACRHPNWSMGRKISVDSATMMNKGLEYIEARWLFNASASQMEVLIHPQSVIHSMVRYQDGSVLAQLGEPDMVRQLPTPWAWPNRVNSGVKPLDFCKLSALTFAAPDYDRYPCLKLAMEAFEQGQAATTALNAANEITVAAFLAQQIRFTDIAALNLSVLEKMDMREPQCVDDVLSVDANAREVARKEVMRLAS
notes: made in house; host or cells: E. coli M15/pREP4
The term Km denotes the concentration of substrate that gives half-maximal velocity. For the protein B1, the Km is 249 µM.
